Positions count from the first letter of the chain named. In names and notes the source's numbering stands.
Target: the molecule itself
Assay: AUC; sedimentation velocity, 20 °C, 40,000 rpm, 40 mM sodium phosphate, 100 mM NaCl, 1 mM EDTA, 3 mM NaN3, pH 7.0; wild type 1.0 mg/mL, D109A 0.5 mg/mL; c(s) and c(M) by SEDFIT; run after dialysis and again after 24 h at 20 °C; size of the oligomer

B1: wild-type human αB-crystallin (natural protein)
chain: MDIAIHHPWIRRPFFPFHSPSRLFDQFFGEHLLESDLFPTSTSLSPFYLRPPSFLRAPSWFDTGLSEMRLEKDRFSVNLDVKHFSPEELKVKVLGDVIEVHGKHEERQDEHGFISREFHRKYRIPADVDPLTITSSLSSDGVLTVNGPRKQVSGPERTIPITREEKPAVTAAPKK
notes: human αB-crystallin (HSPB5), 175 amino acids, coded by CRYAB; cDNA cloned in pET-28b(+); Polydisperse oligomer; 32 subunits is the number worked out for the majority species in AUC (about 650 kDa); also called heat shock protein β5; HSPB5; source: E. coli BL21 (DE3), purified (DEAE-cellulose anion exchange in urea buffer, dialysed against water); copies: 32
  stoichiometry N: 32 subunits

B2: D109A mutant human αB-crystallin (natural protein)
chain: B1 chain with D109A
notes: human αB-crystallin (HSPB5) with the patient mutation D109A (cDNA 326 A>C), made by site-directed mutagenesis of the wild-type cDNA in pET-28b(+); Polydisperse oligomer; 53 subunits is the number worked out for the majority species in AUC (about 1,060 kDa); larger ensembles of 1500-3000 kDa are also seen; The mutation is reported in patients with myofibrillar myopathy; No tag is named; see the …
  stoichiometry N: 53 subunits
